Measured values from US9827292B2, “Use of KGF in the treatment of menopausal disorders” (Università degli Studi di Roma “La Sapienza”, priority 2012, dated 2017).

Tests used:
[1] = tested on: human oestrogen-sensitive keratinocytes (KCs); experiment: Proliferation of primary vaginal keratinocytes (Ki67 immunofluorescence; crystal violet); type: cell-based; details: for proliferative effect in the presence of tamoxifen: tamoxifen 100 nM, anti-Ki67 and crystal violet, FIG. 1D
Protocol: The oestrogen receptor α-positive MCF-7 human breast adenocarcinoma cell line, acquired from American Type Culture Collection (no. HTB-22, ATCC-LGC Promochem, Teddington, UK), was cultured in Dulbecco's modified eagle's medium (DMEM; Invitrogen, Karlsruhe, Germany), supplemented with 10% foetal bovine serum (FBS; Invitrogen) and antibiotics. Primary cultures of human oestrogen-sensitive keratinocytes (KCs) were established from 1 cm^2 full-thickness mucosal biopsy of the vaginal vestibule. Following enzymatic dissociation, the keratinocytes were seeded onto culture plates coated with collagen IV (10 mg/ml), as previously reported [Panici et al, 2007], and were maintained in basal medium of the keratinocytes (KBM, Lonza) supplemented with aliquots of KGM (Lonza), with medium change twice a week. For all the experiments with 17β-oestradiol (E2) and tamoxifen, the MCF-7 cells were cultivated in DMEM without phenol red with 10% FBS treated with dextran/carbon (Invitrogen), and the KCs were transferred to a steroid medium of reduced concentration (KGM without EGF and BPE). […]
The cells, grown on glass coverslips, were treated as described above, then fixed in 4% paraformaldehyde in phosphate-buffered saline (PBS) for 30 min at 25° C., followed by treatment with 0.1 M glycine in PBS for 20 min at 25° C. and with 0.1% Triton X-100 in PBS for an additional 5 min at 25° C. to allow permeabilisation. To assess cell proliferation, the cells were incubated with an anti-Ki67 rabbit polyclonal antibody (1:50 in PBS; Zymed Laboratories, San Francisco, Calif.), which identifies cycling cells. The primary antibody was visualised using Texas Red conjugated goat anti-rabbit IgG (1:100 in PBS; Jackson ImmunoResearch Laboratories, West Grove, Pa.). The nuclei were visualised using 4′,6-diamido-2-phenylindole dihydrochloride (DAPI) (1:10000 in PBS; Sigma-Aldrich). Fluorescence signals were analysed by recording stained images using a cooled CCD colour digital camera SPOT-2 (Diagnostic Instruments Incorporated, Sterling Heights, Mich.) and Axiovision software (Carl Zeiss Inc., Oberkochen, Germany).
The percentage of Ki67-positive cells was evaluated by counting, for each treatment, a total of 500 cells, randomly taken from ten microscopic fields in three different experiments, expressed as mean value±95% CI and recorded as graphs. For the experiments concerning localisation of ERα, the cytoskeleton of actin was visualised using TRITC phalloidin (1:100 in PBS) and ERα was visualised using an anti-ERα monoclonal antibody (Santa Cruz) (1:100 in PBS). The stained single and combined images were captured using Zeiss Apotome® and AxioVision software (Carl Zeiss, Jena, Germany) using 40× lenses.
To evaluate the cytotoxicity of cells treated with tamoxifen, the MCF-7 cells were treated as described above, fixed for 10 min in a solution of 10% acetic acid-10% methanol, stained with crystal violet (1% w/v) and photographed using a Power Shot G5 digital camera (Canon, Inc., Tokyo, Japan).

[2] = tested on: oestrogen response elements (EREs); experiment: ERE-LUC dual-luciferase reporter assay in MCF-7 cells; type: cell-based, human; details: 24 h treatment, FIG. 5
Protocol: MCF-7 cells were seeded onto 24-well plates with a cell/well density of […] and were co-transfected with 1 μg of the 3×ERE TATA LUC construct, a plasmid containing the reporter gene for firefly luciferase under the control of three DNA sequences to which the ER binds, called oestrogen response elements (EREs) (Addgene), and with 300 ng of control pRL-TK plasmid (renilla luciferase) for normalisation of the efficiency of the transfection process. The transfections were carried out using lipofectamine 2000 (Invitrogen) according to manufacturer's instructions. After 6 h, the cells were treated with KGF or E2. The luciferase activity was determined using a dual-luciferase reporter assay system (Promega) 24 h after the treatment, according to manufacturer's protocol. All the transfections were conducted in triplicate.

[3] = tested on: vaginal epithelium; experiment: Vaginal atrophy model in ovariectomised CD1 mice, local hydrogel treatment, histology; type: in vivo, mouse; details: for cornification of vaginal epithelium (hematoxylin and eosin) / stratification of the vaginal epithelium and hyperkeratosis (hematoxylin and eosin): low and high doses, 60 days; for cornification of vaginal epithelium (hematoxylin and eosin): not in vehicle group, FIG. 8A; for stratification of the vaginal epithelium and hyperkeratosis (hematoxylin and eosin): versus vehicle only, FIG. 7B
Protocol: The mouse strain CD1 was used in this study (Charles Rivers). The mice were held in a standard housing for laboratory animals with controlled lighting (12 h/day) and temperature (25±1° C.) and were provided with food and water ab libitum. All the experimental protocols concerning animals were in line with the Guidelines of Sapienza University for the care and use of laboratory animals and were approved by the Ethical Committee of the aforesaid institution. Forty female mice were subjected to an ovariectomy for the purpose of inducing vaginal atrophy and were administered a diet of Altromin C1000 without phytoestrogens (Altromin, Lage, Germany) for the duration of the experiments. After 30 days, the mice were treated locally, introducing daily into the vaginal canal 25 μl of hydrogel loaded with KGF (10 or 30 ng/day) or with E2 (30 ng/day or 1 μg/day). A control group was treated only with hydrogel. After 60 days of treatment, the mice were killed and the vaginas were immediately explanted, fixed in formalin and processed for histological analysis.
Serial sections of the vaginal mucus obtained from four groups of mice were stained with hematoxylin/eosin, placed permanently under a glass plate and analysed histologically. The thickness and the strata of epithelial cells of the vagina were then determined in three animals for each group, in three images for each animal (10× enlargement). Mean values were obtained from five measurements of each image. For the purpose of quantifying the thickness of the vaginal epithelium, the vertical distance between the lower surface of the cells in the stratum basale and the apical surface of the cells in the stratum superficiale was measured with the aid of NIH Image J v 1.56 (National Institutes of Health, Bethesda, Md.), and denoted as thickness. To estimate the number of vaginal epithelial layers, the layer of cells covering five contiguous basal cells was counted in the sample.
Serial sections of the vaginal mucus obtained from the four groups of mice were analysed for the expression of PCNA (Proliferating Cell Nuclear Antigen, a marker of cell proliferation) by means of immunohistochemistry. The sections were elaborated using the technique of avidin-biotin-peroxidase complex (DAKO, Glostrup, Denmark) and incubated with mouse anti-A-rat-PCNA monoclonal antibody (clone P10, 1:4000) (Abcam, Cambridge, UK), which recognises proliferant cells.
All the animals enrolled in the study were fed with a special diet devoid of oestrogens (special altromin C1000 phytoestrogen-free diet). The mice subject to an ovariectomy were then divided into […]: one group received no treatment; one group received only the vehicle; one group received the vehicle+E2 30 ng/day; one group received the vehicle+E2 1 μg/day; one group received the vehicle+KGF 10 ng/day; and one group received the vehicle+KGF 30 ng/day.
The animals were killed and the vaginas removed and immediately fixed in formalin and processed for histology. Vaginal epithelium of the treated mice was analysed histologically by means of hematoxylin/eosin and was compared with the epithelium of the group of mice not subjected to ovariectomy (FIGS. 7B and 8A). The criteria adopted in order to determine the trophism of the vaginal mucus were the thickness (evidenced by counting the number of epithelial layers present and by measuring the thickness of the epithelium in μm and also by means of the ratio between area of the epithelial layer and length of the basal membrane) (FIG. 8B) and the proliferative ability of the keratinocytes (determined by means of analyses of the expression of PCNA, a marker of cell proliferation) (FIG. 9).

Row | Molecule | efficacy in terms of cell proliferation of E2 compared to KGF (Ki67-positive cells) ([1]; low doses (0.5 ng/ml), 24 h, FIG. 1A) [fold increase] | proliferative effect in the presence of tamoxifen [1] | activation of ERE-luciferase construct (genomic pathway) [2] | cornification of vaginal epithelium (hematoxylin and eosin) [3] | stratification of the vaginal epithelium and hyperkeratosis (hematoxylin and eosin) [3] | proliferative effect compared to E2 (Ki67-positive cells) ([1]; 20 ng/ml for KGF and 2.7 ng/ml for E2, FIG. 1A) | stimulation of proliferation of the vaginal epithelium in pre-menopausal and post-menopausal populations ([1]; 20 ng/ml, KC from pre-menopausal and post-menopausal women, FIG. 1B) | increase in epithelial thickness, KGF versus E2 ([3]; KGF at 30 ng/25 ul and E2 at 1 ug/25 ul, FIG. 8B) | epithelium lubrication / mucinous (PAS-positive) cells ([3]; topical KGF, PAS staining, FIG. 9B) | vaginal thinning / epithelial cell proliferation ([3]; topical KGF, ovariectomised mice, FIG. 9)
1 | C[C@]12CC[C@@H]3c4ccc(O)cc4CC[C@H]3[C@@H]1CC[C@@H]2O [E2, 17β-oestradiol] | 1.2 | inhibited by the presence of tamoxifen | able to determine the activation of such a construction | Cornificated vaginal epithelium was observed | significant induction of stratification of the vaginal epithelium and hyperkeratosis | – | – | – | – | –
2 | keratinocyte growth factor (protein, listed as Homo sapiens, human recombinant KGF (Upstate Biotechnology)) MHKWILTWILPTLLYRSCFHIICLVGTISLACNDMTPEQMATNVNCSSPERHTRSYDYMEGGDIRVRRLFCRTQWYLRIDKRGKVKGTQEMKNNYNIMEIRTVAVGIVAIKGVESEFYLAMNKEGKLYAKKECNEDCNFKELILENHYNTYASAKWTHNGGEMFVALNQKGIPVRGKKTKKEQKTAHFLPMAIT | – | able to stimulate cell proliferation even in the presence of tamoxifen | absence of stimulation of the genomic pathway of the oestrogens | Cornificated vaginal epithelium was observed | significant induction of stratification of the vaginal epithelium and hyperkeratosis | absolutely comparable to that of the hormone | able to stimulate proliferation of the vaginal epithelium in a manner comparable to that of oestradiol | same increase in epithelial thickness | restore epithelium lubrication through stimulation of mucinous cells | able to counteract vaginal thinning by stimulating epithelial cells proliferation
